Common to all, as to experiment: ELISA
(In general: An ELISA detects its analyte on a solid surface through an enzyme-linked reagent.)

The target of assay [1] is BDBV GP ectodomain (Bundibugyo virus; strain of the bought …, UniProt B8XCN0).
The target in assay [2] is EBOV soluble glycoprotein (sGP) (Ebola virus (EBOV), UniProt P60170).
Assay [3] has as its target SUDV GP ectodomain (Sudan virus (SUDV), UniProt Q7T9D9).

B1: mAb 9.20.1C3 (antibody, V domains shown)
VH: QVQLVQSGAEVKKPGSSVKVACKVSGGTFSSYTISWVRQAPGQGLEWMGGIIPSFGVGHYSQKFRDRVTLTADKSTTTAFLELSSVRSEDTALYYCAILGTFNWKSGGNYFGPWGQGTLVTVSS
VL: DIVLTQSPDSLAASLGERATISCKSSHSVLYSSNNKDFFAWYQQKPGQPPKLLISWASTRESGVPVRFNGGGSGTHFTLTISSLQAEDVAVYYCQQYFSSPITFGQGTRLEIK
Turning to B1, the binding result in assay [1] was “binds”; in assay [2], “no binding”; in assay [3], “binds”.

B2: mAb 5.24.1C11 (antibody, V domains shown)
VH: QVQLVQSGAEVKKPGASVKVSCRTSGYTFSSYNIHWVRQAPGQGLEWMGVINPYGRSTTLYARRFRDRVTMTRDTSTSTVYMELSSLRSEDTAVYFCGRLYSGAPYGLDVWGQGSTVTVSS
VL: DIVMTQSPLSLPVTPGEPASISCRSSQSLLHSNGYNYVDWYLQKPGQSPQLLIYLGSSRASGVPDRFSGSGSGTDFTLKISRVETEDVGIYYCMQGLQTPLTFGGGTKVEIK
Turning to B2, the values for the binding result in assay [1], in assay [2] and in assay [3] were “binds”, “no binding” and “binds”, respectively.

The record behind these values is paper PMC10204903 (Cell, 2022).
